Laboratory results published in patent US20120251554A1 (TECHNISCHE UNIVERSIT T DRESDEN, published 2012).

B1: CD33-L18-GFP-L18-CD3 (bispecific antibody, part only; not given: anti-CD3 scFv, GFP, linkers, not shown: small tags and cut ends; large carriers)
chain, part: EVKLQESGPELVKPGASVKMSCKASGYKFTDYVVHWLKQKPGQGLEWIGYINPYNDGTKYNEKFKGKATLTSDKSSSTAYMEVSSLTSEDSAVYYCARDYRYEVYGMDYWGQGTSVTVSSDIVLTQSPTIMSASPGERVTMTCTASSSVNYIHWYQQKSGDSPKRWIFDTSKVASGVPARFSGSGSGTSYSLTISTMEAEDAATYYCQQWRSYPLTFGDGTRLELKRADAAPTVS
B2: anti-CD33DRB2 (antibody, V domains shown)
VH: EVKLQESGPELVKPGASVKMSCKASGYKFTDYVVHWLKQKPGQGLEWIGYINPYNDGTKYNEKFKGKATLTSDKSSSTAYMEVSSLTSEDSAVYYCARDYRYEVYGMDYWGQGTSVTVSS
VL: DIVLTQSPTIMSASPGERVTMTCTASSSVNYIHWYQQKSGDSPKRWIFDTSKVASGVPARFSGSGSGTSYSLTISTMEAEDAATYYCQQWRSYPLTFGDGTRLELKR
notes: Murine monoclonal antibody from a hybridoma; also called monoclonal anti-CD33DRB2; anti-CD33DRB antibody
B3: anti-CD33DRB1 (antibody, V domains shown)
VH: EVKLQESGAELVRPGVSVKISCKGSGYTFTDYVLHWVKQSHAKSLEWIGLINTYNGDVRYNQKFMGKATMTIEKSSSTAYMELVRLTSEDSAIYYCARDYRYEYYAMDYWGQGTSVTVSS
VL: DIVLTQSPAIMSASPGEKVTMTCSANSSVSYIHWYQQKSGTSPKRWIFDTSKLASGVPARFSGSGSGTSYSLTISTMEAEDAATYYCQQWTSHPLTFGTGTKLQLKR
notes: Murine monoclonal antibody from a hybridoma (tested as hybridoma supernatant); also called monoclonal anti-CD33DRB1; anti-CD33DRB antibody

What was measured:
human CD33 [1] = target: T1, human CD33 (human, UniProt P20138 18-364); experiment: cell-based or functional assay
T1 construct: whole, on cells; also called CD33+-Hek293T cells; Hek293T-CD33
T1 sequence (P20138 18-364): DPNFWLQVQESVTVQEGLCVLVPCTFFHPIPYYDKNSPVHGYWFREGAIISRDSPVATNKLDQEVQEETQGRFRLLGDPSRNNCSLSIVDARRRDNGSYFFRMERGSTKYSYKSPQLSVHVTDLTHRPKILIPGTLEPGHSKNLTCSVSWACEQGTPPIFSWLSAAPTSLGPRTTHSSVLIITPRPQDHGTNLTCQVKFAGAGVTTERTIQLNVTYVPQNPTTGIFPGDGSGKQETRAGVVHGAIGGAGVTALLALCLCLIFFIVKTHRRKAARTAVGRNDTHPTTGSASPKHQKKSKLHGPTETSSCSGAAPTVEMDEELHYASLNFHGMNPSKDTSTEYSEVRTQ

human CD33 [2] = target: T1, human CD33; experiment: method not stated (sentence refers to FIG. 3, flow cytometry)

Binder | specific lysis of the CD33+-Hek293T cells (51Cr release assay, 20-hour in vitro culture) (human CD33 [1]) [%] | Kd (human CD33 [2]) [nM]
B1 | < 86 | –
B2 | – | ~0.1
B3 | – | ~0.1
